Where two headings read alike, the source gives them in different places.

Holding throughout (test): cell-based or functional assay
Assay [1] addresses IL-15Rβ/γ chain (IL-2Rβ and common gamma chain) on human CD8+ T cells and NK cells (human) (UniProt P14784).
For assay [2] the target is unchanged. The source holds these as a separate data set.
For assay [3] the target is unchanged. This is another data set of the same source.
For assay [4] the target is unchanged. This is another data set of the same source.

Chain of IL-15Rβ/γ chain (IL-2Rβ and common gamma chain) on human CD8+ T cells and NK cells (human) (P14784 27-551, chain 1 of 2): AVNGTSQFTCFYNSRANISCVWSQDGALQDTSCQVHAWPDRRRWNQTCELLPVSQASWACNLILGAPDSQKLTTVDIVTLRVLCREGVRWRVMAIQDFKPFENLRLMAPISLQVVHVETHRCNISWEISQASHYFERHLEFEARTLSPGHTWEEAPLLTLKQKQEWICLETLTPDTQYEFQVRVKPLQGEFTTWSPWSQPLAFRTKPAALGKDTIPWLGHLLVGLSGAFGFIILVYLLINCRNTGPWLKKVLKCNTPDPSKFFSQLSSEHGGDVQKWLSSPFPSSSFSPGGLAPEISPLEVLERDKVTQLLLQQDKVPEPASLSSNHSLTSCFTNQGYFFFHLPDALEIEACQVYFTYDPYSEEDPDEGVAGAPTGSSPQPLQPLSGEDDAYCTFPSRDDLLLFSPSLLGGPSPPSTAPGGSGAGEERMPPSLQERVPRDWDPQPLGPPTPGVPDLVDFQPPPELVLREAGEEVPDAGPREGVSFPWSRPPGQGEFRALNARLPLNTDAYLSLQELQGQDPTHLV
Chain of IL-15Rβ/γ chain (IL-2Rβ and common gamma chain) on human CD8+ T cells and NK cells (human) (P31785 23-369, chain 2 of 2, further chain): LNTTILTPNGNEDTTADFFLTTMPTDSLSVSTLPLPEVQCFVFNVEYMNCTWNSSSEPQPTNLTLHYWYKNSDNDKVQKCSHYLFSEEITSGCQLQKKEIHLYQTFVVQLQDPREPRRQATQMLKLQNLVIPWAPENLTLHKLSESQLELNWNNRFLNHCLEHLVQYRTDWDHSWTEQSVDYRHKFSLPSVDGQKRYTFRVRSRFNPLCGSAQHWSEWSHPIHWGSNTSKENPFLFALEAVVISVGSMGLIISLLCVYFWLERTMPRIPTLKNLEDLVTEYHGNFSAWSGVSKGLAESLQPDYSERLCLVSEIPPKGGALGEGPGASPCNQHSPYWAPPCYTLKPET

B1: W369-BMK1 (XENP24306) (Fc fusion, not shown: a dimerising Fc or GST)
chain: NWVNVISDLKKIEDLIQSMHIDATLYTESNVHPSCKVTAMKCFLLELQVISLESGDASIHDTVQDLIILANNSLSSNGNVTESGCKECEELEEKNIKEFLQSFVHIVQMFINTS
modifications: IL-15Rα-Fc chain, linker, Fc lack entries
Take B1: the EC50, % Ki67 expression, human CD8+ T cells in assay [1] is 145 nM; in assay [2], 651 nM; in assay [3], 203 nM; in assay [4], 28.5 nM. The EC50, % Ki67 expression, human NK cells came out at 39 nM in assay [1], 74.3 nM in assay [2], 35.5 nM in assay [3] and 5.12 nM in assay [4]. Besides, the Fold reduced (EC50, % Ki67), human CD8+ T cells in assay [1] was found to be 176 fold; in assay [2], 2170 fold; in assay [3], 441 fold; in assay [4], 155 fold. Further, the Fold reduced (EC50, % Ki67), human NK cells in assay [1] turned out to be 231 fold; in assay [2] it was 2480 fold; in assay [3], 355 fold; in assay [4], 244 fold.

(Values after patent publication US20230270823A1.)
